Results on three molecules are retold here after paper PMC10980823, “Structural basis of Acinetobacter type IV pili targeting by an RNA virus” (Nature Communications, 2024).

The chains are these.
B2: AP205 maturation protein (Mat) (natural protein, Acinetobacter phage AP205)
chain: MNMYKWVPESIRDSGEGQPSYSNNGDYAPSGPWVAAGIHTMPQSLRDSMRNSIMVTAQARRDVIGPEWGPDGRFTGYASVIGTPDPKPADIVNKFTVERRPVSNGNFQQRVKAGDIVVAPYTSDGKITVKLVAGQKDISSTPDYDYRIDSSLASSAGFVVAGERWYYTKRHFIIPRYFQNWRMRRRKYVTGWVMPTFYSPKEIFNRLKDSLVPDTGLVTQVWADNNTKRMDFLTAMAEIPQTLSSFLDALGYLGSLIKDFKRRRFFLNKAHQRIRNKLGVSFAERRSQIVSKYDRKIASARKPAIIVKLRQRKEKALKALDKMRVREEKKMIREFATQAASLWLSFRYEIMPLYYQSQDVLDVIANSTSEFMTSRDFVAKAINIGIPLEWNLDQENLVSQPRHNVMVKSKLSPENNIGKTLSVNPFTTAWELLTLSFVVDWFVNFGDVIAGFTGGYSDDSGATASWRFDDKKVFHLKNIPSAMVIVDINFYTRQVIDPRLCGGLAFSPKLNLFRYLDAMSLSWNRSRLKISRAT
notes: maturation protein (Mat) of Acinetobacter phage AP205, 534 amino acids as printed; native protein in the virion, where two copies (inner and outer Mat) form a dimer; Native virion protein; models of both copies are in PDB 8TOC; also called inner Mat; outer Mat; source: in AP205 virions grown on A. gp16, purified (CsCl gradient)

Series [1] has as its target Acinetobacter genomosp. 16 type IV pilus (T4P) mature pilin (Acinetobacter genomosp. 16 (endogenous)). Put plainly: cryo-EM structure; purified AP205 and purified T4P mixed at 1:1 volume ratio at 30 C for 30 min; AP205 with two T4P at 3.6 A, with one T4P at 4.2 A; local maps of inner Mat-T4P at 8.2 A and outer Mat-T4P at 8.6 A.
Series [2] deals with the molecule itself. Put plainly: cryo-EM structure; single-particle cryo-EM of purified apo AP205; asymmetric reconstruction of the mature virion at 3.1 A; icosahedral T=3 (3.2 A) and T=4 (3.4 A) particles from the same data.
The target in series [3] is B2. The description is as above. Particulars: both partners purified.

Several values for one entry are separate records, joined by “and”; a condition that tells them apart may be missing. Equal entries are not always repeated.

The stoichiometry N is the number of molecules, sites or subunits per partner or assembly.

B1: AP205 mature virion (complex)
chain 1: MNMYKWVPESIRDSGEGQPSYSNNGDYAPSGPWVAAGIHTMPQSLRDSMRNSIMVTAQARRDVIGPEWGPDGRFTGYASVIGTPDPKPADIVNKFTVERRPVSNGNFQQRVKAGDIVVAPYTSDGKITVKLVAGQKDISSTPDYDYRIDSSLASSAGFVVAGERWYYTKRHFIIPRYFQNWRMRRRKYVTGWVMPTFYSPKEIFNRLKDSLVPDTGLVTQVWADNNTKRMDFLTAMAEIPQTLSSFLDALGYLGSLIKDFKRRRFFLNKAHQRIRNKLGVSFAERRSQIVSKYDRKIASARKPAIIVKLRQRKEKALKALDKMRVREEKKMIREFATQAASLWLSFRYEIMPLYYQSQDVLDVIANSTSEFMTSRDFVAKAINIGIPLEWNLDQENLVSQPRHNVMVKSKLSPENNIGKTLSVNPFTTAWELLTLSFVVDWFVNFGDVIAGFTGGYSDDSGATASWRFDDKKVFHLKNIPSAMVIVDINFYTRQVIDPRLCGGLAFSPKLNLFRYLDAMSLSWNRSRLKISRAT
chain 2: ANKPMQPITSTANKIVWSDPTRLSTTFSASLLRQRVKVGIAELNNVSGQYVSVYKRPAPKPEGCADACVIMPNENQSIRTVISGSAENLATLKAEWETHKRNVDTLFASGNAGLGFLDPTAAIVSSDTT
Regarding B1, in series [1], the stoichiometry N is 2 and 1.

As to B2, the “stoichiometry N” value in series [2] came out at 2.

B3: AP205 coat protein (Coat) (natural protein)
chain: ANKPMQPITSTANKIVWSDPTRLSTTFSASLLRQRVKVGIAELNNVSGQYVSVYKRPAPKPEGCADACVIMPNENQSIRTVISGSAENLATLKAEWETHKRNVDTLFASGNAGLGFLDPTAAIVSSDTT
notes: coat protein (Coat) of Acinetobacter phage AP205; native protein of the capsid shell; also forms T=3 and T=4 icosahedral particles; also called Coat-dimer; Coat shell; source: in AP205 virions and VLPs grown on A. gp16, purified (CsCl gradient)
Take B3: the binding result in series [3] is given as “binds”. Besides, the “stoichiometry N” value in series [2] was determined as 178.
